Test results as given in US20050164186, “Alteration of restriction endonuclease specificity by genetic selection” (published 2005).

Target: T1, BstYI NN1 (K133N/S172N) (Bacillus stearothermophilus, K133N,S172N)
T1 chain: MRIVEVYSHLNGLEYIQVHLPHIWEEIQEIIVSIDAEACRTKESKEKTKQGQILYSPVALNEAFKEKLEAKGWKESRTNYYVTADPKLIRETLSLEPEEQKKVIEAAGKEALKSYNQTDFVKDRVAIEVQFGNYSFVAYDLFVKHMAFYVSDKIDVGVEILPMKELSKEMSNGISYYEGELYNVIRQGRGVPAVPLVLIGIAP
Experiment: cleavage_in_vitro; 60 C
Details: label: radiolabel

B1: AGATCT site, 60 bp substrate (dsDNA)
DNA 1: AGATCT
DNA 2: AGATCT
B1 was tested, and the binding signal was 7 fold preference over AGATCC/GGATCT.
